Measured values as given in the supplement of paper PMC9170038.

Test system: MS2 coat protein
Assay: apparent KD of MS2 coat protein; designed switch direction (-1 OFF switch, 1 ON switch): 1; higher = weaker reporter binding
In short: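 Designed RNA switches with common flanks were transcribed on Illumina chips by stalled E. coli RNA polymerase and titrated with SNAP-549-labelled MS2 coat protein, from 0.7 or 1.5 nM doubling to 3 µM, in Tris-HCl pH 7.5 buffer with KCl, MgCl2, BSA, DTT, tRNA and Tween-20. Steps lasted 0.8–1.5 h (lowest) to 10–20 min (highest). Titrations ran without input, with 200 uM small-molecule ligand, or with an oligonucleotide input. Normalised cluster fluorescence was curve-fitted, and apparent KD is the per-design median over clusters.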

[1] = Eterna round: R95, input ligand: FMN 200 uM
[2] = Eterna round: R95, input ligand: microRNA oligo, concentration not stated
[3] = Eterna round: R95, input ligand: none
[4] = input ligand: microRNA oligo, concentration not stated

Sequence	apparent KD of MS2 coat protein [1]	apparent KD of MS2 coat protein [2]	apparent KD of MS2 coat protein [3]	apparent KD of MS2 coat protein [4]	apparent KD of MS2 coat protein (input ligand: FMN 200 uM)	apparent KD of MS2 coat protein (input ligand: none)
GCCGCACAUGAGGAUCACCCAUGUAAUUACAUGGGAGGAUAUCAGUGCUCGAAAGAGCACUGAGAAGGCCUAAGGC [SS1 - Omei A] (puzzle: Same State 1)	419 nM	32.4 nM	20.8 nM			
GAGAGUGAAGUACAGGAUAUGAGGAGAGGAACAUGAGGAUCACCCAUGUGAAAUAGAGAGAAGAGUCAGAAGGGUAGGGAAGAGA [JR_SS2_Sub004] (puzzle: Same State 2)	32.8 nM	31.4 nM	23 nM			
CCAUAGUACAAUUUAGAUCUACAUGAGGAUCACCCAUGUACUGAGGAUAUCAGCUCGAAUAGAGCUGAGAAGGCAGAAUUAAUU [SSNG3/5-A1] (Eterna round: R96, puzzle: Same State NG 3)				103 nM		
UGUUGUAUUACAGGAUAUCUGUUAUUUUUAUUUAGAGAAGGGUAUUCACAUGAGGAUCACCCAUGUAUAUACGAGGAAGUUGUG [JMF's solution 7] (Eterna round: R96, puzzle: Same State NG 1)				40.8 nM		
UUACUCAUGUAAGGAUAUGCAGCCGAAACGGCUGCAGAAGGUACUAUAAUACAUGAGGAUCACCCAUGUAAAAUAAAUAAAGUU [Mat - Same State NG 1 - JL mod - D97] (Eterna round: R96, puzzle: Same State NG 1)				32 nM	29.1 nM	35.9 nM
GCCAACUCAUGAGGAUAUGGCACCUUAUUGGUGCCAGAAGGCAUGUCUAUUGACAUGAGGAUCACCCAUGUAUUAUUGUUGGCA [Fiskers NG1ss - 24] (Eterna round: R96, puzzle: Same State NG 1)				717 nM	80 nM	893 nM
AACAUGAGGAUCACCCAUGUAGAAAAGUGAGGCAGCUCAGGGAAGGAUAUGGUUGACACCCUCGACCAGAAGGUCCAAAAUAAA [Argeatonra] (Eterna round: R96, puzzle: Same State NG 3)				54.2 nM	31.2 nM	63.6 nM
AUUAAUAAUCGAGGAUAUCACGUCGAUUAGACGUGAGAAGGCGAUCAUAACAUGAGGAUCACCCAUGUAUUACAUGAAGUUAAU [SSNG1/4-B2] (Eterna round: R96, puzzle: Same State NG 1)				23.7 nM	25.3 nM	28.2 nM
GUGGUCAGACAUGAGGAUCACCCAUGUGGAAUAAAUAACACAGAGGAUAUGGAAUAUAAAAUAUACCAGAAGGCUGGAUUGGUG (Eterna round: R96, puzzle: Same State NG 3)				188 nM	131 nM	268 nM
GGUCCAGCCUGAGCUGGACAAAAGCAUGUACAUGAGGAUCACCCAUGUUCAUGUACAAGCUUUUUGCUCGUCUUAGG [salish99_208a_r3_070] (puzzle: Sensor for hsa-mir-208a)	602 nM	19.8 nM	401 nM			
UGGAUCUAGGCUUGCCUGGGUCCUUCAAGACAUGAGGAUCACCCAUGUGUUUUUUUUUUGCUUUUUGUUUGUCUUGA [JL A Humble Attempt mod 2] (puzzle: Sensor for hsa-mir-208a)	50.8 nM	15 nM	23.1 nM			
ACAUGAGAGUGAGGAUAUGCUGUACCUACAUGUGACAUGAGGAUCACCCAUGUGGUAAGUAUGACGCAGAAGGCACAGAUAUGU [Equivalance 78 - Jieux - Same State NG 2] (Eterna round: R96, puzzle: Same State NG 2)				78.9 nM	13.3 nM	103 nM
CCCUGAGGCAGCCUACAGGGACAUGAGGAUCACCCAUGUACACAGGAUAUCGAGGGCUCCGCCCUCGAGAAGGGUGAUCAGACU [Redied] (Eterna round: R96, puzzle: Same State NG 3)				161 nM	321 nM	97.4 nM
